Molecular target: CDw52 antigen (CAMPATH-1 antigen) (human) (UniProt P31358)
Test: cell-based or functional assay

Substance: CAMPATH (antibody)
- lysis in 51Cr release assay (ADCC) of SaOS-2 osteosarcoma cells with LAK effector cells, after 18 h: 45%
